B1: anti-glucagon monoclonal antibody IBA032 (antibody, mouse IgG1, kappa, V domains shown)
VH: QVQLQQSGAELVKPGASVKMSCKASGYNFTDYWIHWVKERPGQGLEWIGYFSTHSDYAIINQKFRDKATLTADKSSRLAYMQLSSLTSEDSAIYYCARGGLGLSYWGQGTTVTVSS
VL: DIVMTQAAPSVLVTPGESVSISCRSPKSLVGPMGRTYLYWFLQRPGQSPQLLIYRRNNLAPGVPDRFSGSGSGTAFTLRISRVEAEDVGIYYCMQHLEFPLTFGAGTKLEIKR
notes: Captured through goat anti-mouse Fc in Biacore; ruthenium-labelled as detection antibody in the sandwich ELISA; also called detection/conjugate antibody IBA032; anti-glucagon C-terminal antibody IBA032
B2: anti-glucagon monoclonal antibody IBA009 (antibody, mouse IgG1, kappa, V domains shown)
VH: QVQLLQPGAELVKPGASVKLSCKASGYNFNDYWLNWVKQRPGQGLEWIGNAYPGWGIINYNEKFKSKVTLTVDTSSSTVYMQLSSLTSDDSAVYYCARDYDNAYWGQGTTVTVSS
VL: NIVMTQSPKSMSMSVGERVTLTCKASENAGTYVAWYQQKPEQSPKLLIYNGSHRYDGVPDRFTGSGSATDFTLTISSVQAEDLADYYCGQSYSYPWTFGGGTKLEMKR
notes: Captured through goat anti-mouse Fc in Biacore; biotin-labelled as capture antibody in the sandwich ELISA; also called capture antibody IBA009; anti-mid region antibody IBA009

Assays:
glucagon (1-29) [1] = target: T1, glucagon (1-29) (Homo sapiens); experiment: affinity for glucagon against commercial antibody K79bB10 (Sigma-Aldrich G2654); method of the reference value not stated
T1 construct: Glucagon (1-29), Anaspec 22456, as analyte in Biacore; the listing names Homo sapiens; also called GCG; glucagon peptide

glucagon (1-29) [2] = target: T1, glucagon (1-29); experiment: Biacore SPR, antibody captured by goat anti-mouse Fc, glucagon (1-29) as analyte, 25 C, 1:1 Langmuir model
Method: (§1) Briefly described, the anti-glucagon monoclonal antibody IBA009 or IBA032, may be dissolved in HBS-EP buffer (150 mM sodium chloride, 3 mM EDTA, 0.005% (w/v) surfactant P-20, and 10 mM N-2-hydroxyethylpiperazine-N′-2-ethanesulfonic acid (HEPES) at pH 7.4; #BR-1001-88). Goat anti-mouse Fc antibody is immobilized on flow cells 1 to 4 of a CMS sensor chip at a level of 4000 response units (RUs) using amine coupling chemistry to capture anti-glucagon antibodies.
(§2) Binding may be evaluated using multiple analytical cycles. Each cycle is performed at a flow rate of 50 μl/minute, and may consist of the following steps: injection of about 10 μl of the anti-glucagon monoclonal antibody IBA009 or IBA032 at 10 μg/ml aiming at a capture of 40-100 RUs, injection of 250 μl of glucagon (1-29) (Anaspec 22456)—(starting at 100 nM and using two-fold serial dilutions for each cycle) followed by 20 minutes for dissociation, and regeneration using about 30 μl of 10 mM glycine hydrochloride, pH 1.5. Association and dissociation rates for each cycle may be evaluated using a “1:1 (Langmuir) binding” model in the BIAevaluation software 4.1.
(§3) The anti-glucagon monoclonal antibodies IBA009 and IBA032 may be tested for binding kinetics to glucagon.

glucagon (1-29) [3] = target: T1, glucagon (1-29); experiment: Biacore SPR, antibody captured by goat anti-mouse Fc, glucagon (1-29) as analyte; KD = koff/kon
Method: as §1, §2, §3

glucagon (1-29) [4] = target: T1, glucagon (1-29); experiment: affinity for glucagon against commercial antibody 2D3-2B11 (Sigma-Aldrich WH0002641M1); method of the reference value not stated

T1 sequence (peptide, as listed by the source): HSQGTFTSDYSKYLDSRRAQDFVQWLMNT

| Binder | fold stronger affinity than reference antibody K79bB10 (glucagon (1-29) [1]) | koff (glucagon (1-29) [2]) | kon (glucagon (1-29) [2]) | Kd (glucagon (1-29) [3]) | fold stronger affinity than reference antibody 2D3-2B11 (glucagon (1-29) [4]) |
| --- | --- | --- | --- | --- | --- |
| B1 | ~800 fold | 0.00024 s⁻¹ | 2.7e+07 M⁻¹ s⁻¹ | 8.7 pM |  |
| B2 |  | 1.1e-05 s⁻¹ | 1.5e+07 M⁻¹ s⁻¹ | 0.73 pM | ~130 fold |
